Data: the supplement of paper PMC10567573
± gives the standard deviation.

Experiment: protein stability index of a GFP-peptide fusion (GPS, HEK-293T) (PSI 1-6); higher = more stable
Conditions: c terminus: a fixed tail appended
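Further: 24-mer peptide tiles fused after GFP, lentivirally expressed, FACS-sorted into six equal bins by GFP/DsRed ratio, decoded by Illumina sequencing, PSI is the read-weighted mean bin number.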

TEFRKGAQSLPGPCAAAREGRLER [IRX6] gave a protein stability index (treatment: DMSO) of 4.53 ± 0.17 and a protein stability index (treatment: MLN4924 1 uM, 8 h) of 4.62 ± 0.21.

Work on SCPNGMSAENGLEKSGFSQHQNKS [DLC1] yielded a protein stability index (treatment: DMSO) of 4.86 ± 0.17 and a protein stability index (treatment: MLN4924 1 uM, 8 h) of 5.06 ± 0.11.

IYAYDAKIEIQTLTGLFKGDKCHS [CASP6] gave a protein stability index (treatment: DMSO) of 2.14 ± 0.7 and a protein stability index (treatment: MLN4924 1 uM, 8 h) of 2.26 ± 0.23.

Sequence LASYLEKVRQLERDNAELENLIRE [KRT33B] has a protein stability index (treatment: DMSO) of 3.31 ± 0.5 and a protein stability index (treatment: MLN4924 1 uM, 8 h) of 3.34 ± 0.36.

Work on NTEIEKLGRSIVSSPQGKSGPEAA [PKD2L1] yielded a protein stability index (treatment: DMSO) of 5.35 ± 0.22 and a protein stability index (treatment: MLN4924 1 uM, 8 h) of 5.34 ± 0.15.

In the case of TPATTTEPPKPTFPAYTQSTASTT [ZNF207], the protein stability index (treatment: DMSO) is reported as 4.99 ± 0.12 and the protein stability index (treatment: MLN4924 1 uM, 8 h) is reported as 5.1 ± 0.15.

Work on YPFQDSEPVLLFGKIRRGAYALPA [TRIB3] yielded a protein stability index (treatment: DMSO) of 2.48 ± 0.27 and a protein stability index (treatment: MLN4924 1 uM, 8 h) of 2.66 ± 0.12.

In the case of ETYMSADDLRINLWHLAITDRSFN [PPP2R2C], the protein stability index (treatment: DMSO) is reported as 2.23 ± 0.32 and the protein stability index (treatment: MLN4924 1 uM, 8 h) is reported as 2.36 ± 0.29.

EIERAIKQTQCPADPLQLNKALSI [FEM1C] showed a protein stability index (treatment: DMSO) of 3.42 ± 0.44 and a protein stability index (treatment: MLN4924 1 uM, 8 h) of 3.28 ± 0.16.

With TVYKARDPHSGHFVALKSVRVPNG [CDK4] the protein stability index (treatment: DMSO) was 2.31 ± 0.48 and the protein stability index (treatment: MLN4924 1 uM, 8 h) was 2.68 ± 0.49.

For DQLLLATGLNNGRIKIWDVYTGKL [WSB1], the protein stability index (treatment: DMSO) was 2.17 ± 0.29 and the protein stability index (treatment: MLN4924 1 uM, 8 h) was 2.17 ± 0.31.

With QQVCQWLLWATNEFSLVNVNLQRF [ETS2] the protein stability index (treatment: DMSO) was 3.01 ± 0.23 and the protein stability index (treatment: MLN4924 1 uM, 8 h) was 2.94 ± 0.42.

Sequence AGSEQKGQIIKDIDSGSPAEEAGL [PDZK1] has a protein stability index (treatment: DMSO) of 5.61 ± 0.11 and a protein stability index (treatment: MLN4924 1 uM, 8 h) of 5.26 ± 0.27.

Sequence MGSASPGLSSVSPSHLLLPPDTVS [SPDEF] has a protein stability index (treatment: DMSO) of 4.28 ± 0.27 and a protein stability index (treatment: MLN4924 1 uM, 8 h) of 4.2 ± 0.23.

EGPGEQETKLDLISKGEEPRAGKE [SLC29A1] gave a protein stability index (treatment: DMSO) of 5.68 ± 0.21 and a protein stability index (treatment: MLN4924 1 uM, 8 h) of 5.43 ± 0.21.

With MMDSRTSQQLQLIDEQDSYIQSRA [STX5] the protein stability index (treatment: DMSO) was 4.77 ± 0.15 and the protein stability index (treatment: MLN4924 1 uM, 8 h) was 4.74 ± 0.076.

Sequence IISGVSKVPIAQDELALSLGYAAS [C2CD2L] has a protein stability index (treatment: DMSO) of 2.58 ± 0.3 and a protein stability index (treatment: MLN4924 1 uM, 8 h) of 2.55 ± 0.32.

Sequence GFFDVLGNDRRREWAALGNMSKED [ACBD3] has a protein stability index (treatment: DMSO) of 3.85 ± 0.44 and a protein stability index (treatment: MLN4924 1 uM, 8 h) of 4.551 ± 0.018.

AMVEFVKLLNRCCHLFSTYVASHK [ACBD3] showed a protein stability index (treatment: DMSO) of 2.97 ± 0.19 and a protein stability index (treatment: MLN4924 1 uM, 8 h) of 2.85 ± 0.16.

PPITEVESQVFSEKLATDTSTFEA [ZNF232] showed a protein stability index (treatment: DMSO) of 5.33 ± 0.2 and a protein stability index (treatment: MLN4924 1 uM, 8 h) of 5.26 ± 0.083.

Sequence GALTPTPAPTTTTATREEASTSLP [CLPTM1] has a protein stability index (treatment: DMSO) of 5.28 ± 0.33 and a protein stability index (treatment: MLN4924 1 uM, 8 h) of 5.58 ± 0.22.

Sequence GLEAPRDLEAKEVTPRTALLTWTE [TNXB] has a protein stability index (treatment: DMSO) of 3.22 ± 0.4 and a protein stability index (treatment: MLN4924 1 uM, 8 h) of 4.95 ± 0.29.

With WFSDPSDTALLNLLPMLDALRFTA [CTDNEP1] the protein stability index (treatment: DMSO) was 2.73 ± 0.58 and the protein stability index (treatment: MLN4924 1 uM, 8 h) was 2.98 ± 0.67.

In the case of YDILPLSPVSRNRLAQVKRKILVL [CTDNEP1], the protein stability index (treatment: DMSO) is reported as 2.11 ± 0.36 and the protein stability index (treatment: MLN4924 1 uM, 8 h) is reported as 2.35 ± 0.22.

Sequence EEYSQIIYSTKLYRFFKYIENRDV [BTBD10] has a protein stability index (treatment: DMSO) of 1.64 ± 0.19 and a protein stability index (treatment: MLN4924 1 uM, 8 h) of 1.87 ± 0.4.

NKISRFQAPISAPEYTYGISNIDT [MFF] showed a protein stability index (treatment: DMSO) of 3.42 ± 0.28 and a protein stability index (treatment: MLN4924 1 uM, 8 h) of 3.56 ± 0.45.

Work on LPMLSVDMENKENGSVGVKNSMEN [SAMD13] yielded a protein stability index (treatment: DMSO) of 5.09 ± 0.25 and a protein stability index (treatment: MLN4924 1 uM, 8 h) of 5.18 ± 0.27.

VQFHRHHGQEGSILVTKVEEPSKY [GMPPB] gave a protein stability index (treatment: DMSO) of 3.45 ± 0.31 and a protein stability index (treatment: MLN4924 1 uM, 8 h) of 3.58 ± 0.27.

GRHAQTVETLLRHGAHINLQSLKF [RIPK4] showed a protein stability index (treatment: DMSO) of 2.34 ± 0.14 and a protein stability index (treatment: MLN4924 1 uM, 8 h) of 2.65 ± 0.45.

Sequence TDSDDDFDMSRYSSSGYSSAEINQ [FAM219A] has a protein stability index (treatment: DMSO) of 5.04 ± 0.21 and a protein stability index (treatment: MLN4924 1 uM, 8 h) of 5.22 ± 0.37.

Sequence EEERDEEEDKRRKGEEVTPISAIR [EPB41L3] has a protein stability index (treatment: DMSO) of 5.59 ± 0.28 and a protein stability index (treatment: MLN4924 1 uM, 8 h) of 5.66 ± 0.21.

DSLWHRSDSAPRNKISRFQAPISA [MFF] showed a protein stability index (treatment: DMSO) of 3.43 ± 0.45 and a protein stability index (treatment: MLN4924 1 uM, 8 h) of 3.41 ± 0.19.

Work on FFLKHPDKDVRLLVACCLADIFRI [PDS5B] yielded a protein stability index (treatment: DMSO) of 2.95 ± 0.81 and a protein stability index (treatment: MLN4924 1 uM, 8 h) of 2.75 ± 0.17.

In the case of SGGYGQDALGMDPMMEHEMGGHHP [CTNNB1], the protein stability index (treatment: DMSO) is reported as 4.65 ± 0.18 and the protein stability index (treatment: MLN4924 1 uM, 8 h) is reported as 4.69 ± 0.23.

Sequence AALNALQPPEFRNESSLASTLKTL [VMA21] has a protein stability index (treatment: DMSO) of 3.44 ± 0.2 and a protein stability index (treatment: MLN4924 1 uM, 8 h) of 3.51 ± 0.18.

In the case of VSLSLENRELWKEFSSVGTEMIIT [TBX6], the protein stability index (treatment: DMSO) is reported as 2.71 ± 0.62 and the protein stability index (treatment: MLN4924 1 uM, 8 h) is reported as 2.31 ± 0.45.

For PVELYTAFQHTPTSITLTASRVSK [KMT2E], the protein stability index (treatment: DMSO) was 3.63 ± 0.095 and the protein stability index (treatment: MLN4924 1 uM, 8 h) was 3.71 ± 0.13.

Work on TLQNGRRHIHHLGNQLQLNQHCLD [BRF1] yielded a protein stability index (treatment: DMSO) of 3.1 ± 0.034 and a protein stability index (treatment: MLN4924 1 uM, 8 h) of 3.31 ± 0.097.

CMYEHGEDTHQSPEPEDEPGGPGA [RSPH3] showed a protein stability index (treatment: DMSO) of 5.42 ± 0.29 and a protein stability index (treatment: MLN4924 1 uM, 8 h) of 5.51 ± 0.17.

In the case of PLPAAAVVHVSFPEVTSALLESLN [ZBTB22], the protein stability index (treatment: DMSO) is reported as 2.41 ± 0.25 and the protein stability index (treatment: MLN4924 1 uM, 8 h) is reported as 2.27 ± 0.26.

DAPEQRLRVMTTNIRSARGNNPNG [ELOA2] showed a protein stability index (treatment: DMSO) of 4.84 ± 0.23 and a protein stability index (treatment: MLN4924 1 uM, 8 h) of 4.95 ± 0.23.

Work on AVPTDEARAFAEKNGLSFIETSAL [RAB11A] yielded a protein stability index (treatment: DMSO) of 2.9 ± 0.34 and a protein stability index (treatment: MLN4924 1 uM, 8 h) of 3.37 ± 0.52.

MYRWKLSSHEPCSATCTTGVMSAY [ADAMTSL2] showed a protein stability index (treatment: DMSO) of 2.24 ± 0.74 and a protein stability index (treatment: MLN4924 1 uM, 8 h) of 2.2 ± 0.73.

Work on LRTRVKTTGIVETHFTFKDLHFKM [GNAI1] yielded a protein stability index (treatment: MLN4924 1 uM, 8 h) of 2.14 ± 0.62.

RGDSVKVENPSTASHSLSPSEHVQ [ZNF649] showed a protein stability index (treatment: DMSO) of 5.08 ± 0.37 and a protein stability index (treatment: MLN4924 1 uM, 8 h) of 5.19 ± 0.6.
